Results from paper PMC10237034 (Molecular Cell, 2023).

Assays:
Assay in all cases: cryo-EM structure
histone H4 = histone H4 (X. laevis, UniProt P62799)
histone H2B = histone H2B (X. laevis, UniProt P02281)
TFIIH subunit XPB = TFIIH subunit XPB (human, UniProt P19447 1-782)
Sequence of TFIIH subunit XPB (P19447 whole entry): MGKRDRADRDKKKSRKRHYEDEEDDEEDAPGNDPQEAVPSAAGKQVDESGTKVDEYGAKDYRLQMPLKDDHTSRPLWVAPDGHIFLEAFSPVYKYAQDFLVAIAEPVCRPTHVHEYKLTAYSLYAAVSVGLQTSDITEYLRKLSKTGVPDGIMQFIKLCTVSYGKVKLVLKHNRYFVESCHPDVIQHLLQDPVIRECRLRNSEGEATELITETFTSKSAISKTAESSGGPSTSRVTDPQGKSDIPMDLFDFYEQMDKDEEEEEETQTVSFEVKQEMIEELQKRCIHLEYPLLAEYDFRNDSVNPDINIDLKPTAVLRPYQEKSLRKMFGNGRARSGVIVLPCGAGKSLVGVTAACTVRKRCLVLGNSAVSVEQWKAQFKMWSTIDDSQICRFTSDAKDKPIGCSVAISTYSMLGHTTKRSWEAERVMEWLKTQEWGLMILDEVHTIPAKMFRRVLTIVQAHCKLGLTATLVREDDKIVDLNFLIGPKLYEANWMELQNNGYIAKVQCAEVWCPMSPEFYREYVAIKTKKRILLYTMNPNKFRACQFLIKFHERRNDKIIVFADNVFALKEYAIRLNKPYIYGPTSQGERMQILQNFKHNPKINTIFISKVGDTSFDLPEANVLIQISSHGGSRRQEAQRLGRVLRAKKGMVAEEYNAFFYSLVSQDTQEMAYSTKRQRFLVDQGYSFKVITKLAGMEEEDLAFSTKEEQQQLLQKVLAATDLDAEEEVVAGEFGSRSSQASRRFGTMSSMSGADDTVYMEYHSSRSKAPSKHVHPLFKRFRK

Row | binding result (histone H4) | binding result (histone H2B) | binding result (TFIIH subunit XPB) | Binder
1 | binds | binds | – | TFIIH subunit p8 (natural protein) MVNVLKGVLIECDPAMKQFLLYLDESNALGKKFIIQDIDDTHVFVIAELVNVLQERVGELMDQNAFSLTQK
2 | – | – | binds | TFIIH subunit MAT1 (natural protein) MDDQGCPRCKTTKYRNPSLKLMVNVCGHTLCESCVDLLFVRGAGNCPECGTPLRKSNFRVQLFEDPTVDKEVEIRKKVLKIYNKREEDFPSLREYNDFLEEVEEIVFNLTNNVDLDNTKKKMEIYQKENKDVIQKNKLKLTREQEELEEALEVERQENEQRRLFIQKEEQLQQILKRKNKQAFLDELESSDLPVALLLAQHKDRSTQLEMQLEKPKPVKPVTFSTGIKMGQHISLAPIHKLEEALYEYQPLQIETYGPHVPELEMLGRLGYLNHVRAASPQDLAGGYTSSLACHRALQDAFSGLFWQPS
